Tests used:
[1] = target: T1, mouse Transferrin Receptor overexpressed on Hek 293 cells (mouse, UniProt Q62351 1-763); test: cell-based MSD-ECL binding on Hek293 cells overexpressing mouse TfR
T1 construct: whole, on cells; also called Hek293/mTfR; 293/mTFR
Method: (§1) Meso-scale Discovery (MSD) Electrochemiluminescesnce (ECL) assays to screen for antibodies or DVDs that bind a desired target antigen expressed on the cell surface were performed as follows: Hek 293 cells overexpressing mouse Transferin Receptor were added onto MSD 96-well plates (MSD Cat# L11 XB-3, lot#2290-EA) which were blocked using blocking buffer (30% FBS Serum (Hyclone) in PBS) at 37° C. for 1 hr. After incubating at RT for 30 min with mild agitation, plates were washed with DPBS 3 times and Abs/DVDs (10,000 ng/ml) were added. After incubating for 1 hr at RT, plates were washed 3 times with DPBS and 25 ul of Goat anti human Sulfo TAG (MSD Cat# R32AC-, Lot# W001162) at 1 μg/ml is added. Following a 1 h incubation at RT for 1 hr, plates are washed and MSD read buffer is added before reading on MSD SECTOR Imager 6000. EC50 values are obtained using Xlfit4 software package

[2] = target: T1, mouse Transferrin Receptor …; test: 293/mTFR cell-based assay
Method: as §1

[3] = target: Repulsive guidance molecule A; test: cell-based or functional assay

T1 sequence (Q62351 whole entry): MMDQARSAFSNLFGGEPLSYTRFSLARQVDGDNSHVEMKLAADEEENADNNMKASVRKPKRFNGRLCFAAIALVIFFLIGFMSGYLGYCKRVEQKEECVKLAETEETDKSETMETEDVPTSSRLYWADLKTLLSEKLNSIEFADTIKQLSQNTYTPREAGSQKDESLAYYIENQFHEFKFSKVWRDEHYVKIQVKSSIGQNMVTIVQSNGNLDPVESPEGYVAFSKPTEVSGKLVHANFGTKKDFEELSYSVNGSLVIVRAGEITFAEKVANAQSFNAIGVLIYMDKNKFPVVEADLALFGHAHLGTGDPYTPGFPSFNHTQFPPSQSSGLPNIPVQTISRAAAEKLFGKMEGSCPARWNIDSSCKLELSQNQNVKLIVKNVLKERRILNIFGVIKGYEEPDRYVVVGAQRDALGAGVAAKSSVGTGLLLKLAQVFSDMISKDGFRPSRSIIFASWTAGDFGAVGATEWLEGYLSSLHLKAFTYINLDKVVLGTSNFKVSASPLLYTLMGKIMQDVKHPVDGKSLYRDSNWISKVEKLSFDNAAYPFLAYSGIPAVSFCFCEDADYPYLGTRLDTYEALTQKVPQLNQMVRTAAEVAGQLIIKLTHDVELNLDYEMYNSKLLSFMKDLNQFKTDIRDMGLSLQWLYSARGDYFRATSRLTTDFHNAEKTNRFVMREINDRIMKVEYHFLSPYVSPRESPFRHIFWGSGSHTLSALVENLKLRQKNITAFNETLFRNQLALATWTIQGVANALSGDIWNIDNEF

Binder | EC50 [1] [nM] | EC50 [2] [nM] | BMP Assay (EC50, nM) [3] [nM]
DVD1295 (bispecific antibody, DVD-Ig, outer AB043 (APP), inner AB221 (TfR), HG-short/LK-short; dual variable regions only; constant regions not assigned) VH: EVQLLESGGGLVQPGGSLRLSCAASGFTFSNYGMSWVRQAPGKGLEWVASIRSGGGRTYYSDNVKGRFTISRDNSKNTLYLQMNSLRAEDTAVYYCVRYDHYSGSSDYWGQGTLVTVSSASTKGPEVQLVESGGGLVQPGNSLTLSCVASGFTFSNYGMHWIRQAPKKGLEWIAMIYYDSSKMNYADTVKGRFTISRDNSKNTLYLEMNSLRSEDTAMYYCAVPTSHYVVDVWGQGVSVTVSS VL: DVVMTQSPLSLPVTPGEPASISCKSSQSLLDSDGKTYLNWLLQKPGQSPQRLIYLVSKLDSGVPDRFSGSGSGTDFTLKISRVEAEDVGVYYCWQGTHFPRTFGQGTKVEIKRTVAAPDIQMTQSPASLSASLEEIVTITCQASQDIGNWLAWYQQKPGKSPQLLIYGATSLADGVPSRFSGSRSGTQFSLKISRVQVEDIGIYYCLQAYNTPWTFGGGTKLELKR | 3.7 |  | 
AB405-SL-Aβ(3D6) (bispecific antibody, DVD-Ig composed from its name; constant regions not assigned; also called AB405-SL-Aβ(3D6) DVD-Ig) VH: QVQLVQSGAEVKKPGASVKVSCKASGFTFSNYGMHWIRQAPGQGLEWIAMIYYDSSKMNYADTVKGRFTITRDNSTNTLYMELSSLRSEDTAVYYCAVPTSHYVVDVWGQGTTVTVSSASTKGPEVQLLESGGGLVQPGGSLRLSCAASGFTFSNYGMSWVRQAPGKGLEWVASIRSGGGRTYYSDNVKGRFTISRDNSKNTLYLQMNSLRAEDTAVYYCVRYDHYSGSSDYWGQGTLVTVSS VL: EIVMTQSPATLSVSPGERATLSCQASQDIGNWLAWYQQKPGQSPRLLIYGATSLADGVPARFSGSRSGTEFTLTISSLQSEDFAVYYCLQAYNTPWTFGGGTKVEIKRTVAAPSVFIFPPDVVMTQSPLSLPVTPGEPASISCKSSQSLLDSDGKTYLNWLLQKPGQSPQRLIYLVSKLDSGVPDRFSGSGSGTDFTLKISRVEAEDVGVYYCWQGTHFPRTFGQGTKVEIKR |  | 4.71 | 
TfR(AB405)-SL-RGMA(AE12-1) (bispecific antibody, DVD-Ig composed from its name; constant regions not assigned) VH: QVQLVQSGAEVKKPGASVKVSCKASGFTFSNYGMHWIRQAPGQGLEWIAMIYYDSSKMNYADTVKGRFTITRDNSTNTLYMELSSLRSEDTAVYYCAVPTSHYVVDVWGQGTTVTVSSASTKGPEVQLVQSGAEVKKPGASVKVSCKASGYTFTSHGISWVRQAPGQGLDWMGWISPYSGNTNYAQKLQGRVTMTTDTSTSTAYMELSSLRSEDTAVYYCARVGSGPYYYMDVWGQGTLVTVSS VL: EIVMTQSPATLSVSPGERATLSCQASQDIGNWLAWYQQKPGQSPRLLIYGATSLADGVPARFSGSRSGTEFTLTISSLQSEDFAVYYCLQAYNTPWTFGGGTKVEIKRTVAAPSVFIFPPQSALTQPRSVSGSPGQSVTISCTGTSSSVGDSIYVSWYQQHPGKAPKLMLYDVTKRPSGVPDRFSGSKSGNTASLTISGLQAEDEADYYCCSYAGTDTLFGGGTKVTVLG |  | 4.41 | 0.73
TfR(AB405)-LL-RGMA(AE12-1) (bispecific antibody) chain 1: QVQLVQSGAEVKKPGASVKVSCKASGFTFSNYGMHWIRQAPGQGLEWIAMIYYDSSKMNYADTVKGRFTITRDNSTNTLYMELSSLRSEDTAVYYCAVPTSHYVVDVWGQGTTVTVSSASTKGPSVFPLAPEVQLVQSGAEVKKPGASVKVSCKASGYTFTSHGISWVRQAPGQGLDWMGWISPYSGNTNYAQKLQGRVTMTTDTSTSTAYMELSSLRSEDTAVYYCARVGSGPYYYMDVWGQGTLVTVSS chain 2: EIVMTQSPATLSVSPGERATLSCQASQDIGNWLAWYQQKPGQSPRLLIYGATSLADGVPARFSGSRSGTEFTLTISSLQSEDFAVYYCLQAYNTPWTFGGGTKVEIKRTVAAPSVFIFPPQSALTQPRSVSGSPGQSVTISCTGTSSSVGDSIYVSWYQQHPGKAPKLMLYDVTKRPSGVPDRFSGSKSGNTASLTISGLQAEDEADYYCCSYAGTDTLFGGGTKVTVLG |  | 4.44 | 0.701
DVD2359 (bispecific antibody, DVD-Ig, outer AB043 (APP), inner AB402 (TfR), HG-short/LK-short; dual variable regions only; constant regions not assigned; also called Aβ(3D6)-SS-AB402 DVD2359; Aβ(3D6)-SS-AB402 DVD-Ig 2359) VH: EVQLLESGGGLVQPGGSLRLSCAASGFTFSNYGMSWVRQAPGKGLEWVASIRSGGGRTYYSDNVKGRFTISRDNSKNTLYLQMNSLRAEDTAVYYCVRYDHYSGSSDYWGQGTLVTVSSASTKGPEVQLVESGGGLVQPGGSLRLSCAASGFTFSNYGMHWIRQAPGKGLEWIAMIYYDSSKMNYADTVKGRFTISRDNAKNSLYLQMNSLRAEDTAVYYCAVPTSHYVVDVWGQGTTVTVSS VL: DVVMTQSPLSLPVTPGEPASISCKSSQSLLDSDGKTYLNWLLQKPGQSPQRLIYLVSKLDSGVPDRFSGSGSGTDFTLKISRVEAEDVGVYYCWQGTHFPRTFGQGTKVEIKRTVAAPAIQMTQSPSSLSASVGDRVTITCQASQDIGNWLAWYQQKPGKSPKLLIYGATSLADGVPSRFSGSRSGTDFTLTISSLQPEDFATYYCLQAYNTPWTFGGGTKVEIKR | 12 | 12 | 
DVD2361 (bispecific antibody) chain 1: EVQLLESGGGLVQPGGSLRLSCAASGFTFSNYGMSWVRQAPGKGLEWVASIRSGGGRTYYSDNVKGRFTISRDNSKNTLYLQMNSLRAEDTAVYYCVRYDHYSGSSDYWGQGTLVTVSSASTKGPEVQLVESGGGLVQPGGSLRLSCAASGFTFSNYGMHWIRQAPGKGLEWIAMIYYDSSKMNYADTVKGRFTISRDNAKNSLYLQMNSLRAEDTAVYYCAVPTSHYVVDVWGQGTTVTVSS chain 2: DVVMTQSPLSLPVTPGEPASISCKSSQSLLDSDGKTYLNWLLQKPGQSPQRLIYLVSKLDSGVPDRFSGSGSGTDFTLKISRVEAEDVGVYYCWQGTHFPRTFGQGTKVEIKRTVAAPEIVMTQSPATLSVSPGERATLSCQASQDIGNWLAWYQQKPGQSPRLLIYGATSLADGVPARFSGSRSGTEFTLTISSLQSEDFAVYYCLQAYNTPWTFGGGTKVEIKR | 10.7 |  | 
TfR(AB405)-LS-RGMA(AE12-1) (bispecific antibody) chain 1: QVQLVQSGAEVKKPGASVKVSCKASGFTFSNYGMHWIRQAPGQGLEWIAMIYYDSSKMNYADTVKGRFTITRDNSTNTLYMELSSLRSEDTAVYYCAVPTSHYVVDVWGQGTTVTVSSASTKGPSVFPLAPEVQLVQSGAEVKKPGASVKVSCKASGYTFTSHGISWVRQAPGQGLDWMGWISPYSGNTNYAQKLQGRVTMTTDTSTSTAYMELSSLRSEDTAVYYCARVGSGPYYYMDVWGQGTLVTVSS chain 2: EIVMTQSPATLSVSPGERATLSCQASQDIGNWLAWYQQKPGQSPRLLIYGATSLADGVPARFSGSRSGTEFTLTISSLQSEDFAVYYCLQAYNTPWTFGGGTKVEIKRTVAAPQSALTQPRSVSGSPGQSVTISCTGTSSSVGDSIYVSWYQQHPGKAPKLMLYDVTKRPSGVPDRFSGSKSGNTASLTISGLQAEDEADYYCCSYAGTDTLFGGGTKVTVLG |  | 3.9 | 
RGMA (AE12-1) (antibody, V domains shown) VH: EVQLVQSGAEVKKPGASVKVSCKASGYTFTSHGISWVRQAPGQGLDWMGWISPYSGNTNYAQKLQGRVTMTTDTSTSTAYMELSSLRSEDTAVYYCARVGSGPYYYMDVWGQGTLVTVSS VL: QSALTQPRSVSGSPGQSVTISCTGTSSSVGDSIYVSWYQQHPGKAPKLMLYDVTKRPSGVPDRFSGSKSGNTASLTISGLQAEDEADYYCCSYAGTDTLFGGGTKVTVLG |  |  | 0.25
DVD1294 (bispecific antibody, DVD-Ig, outer AB221 (TfR), inner AB043 (APP), HG-short/LK-short; the entries are the dual variable regions only; constant regions not assigned) VH: EVQLVESGGGLVQPGNSLTLSCVASGFTFSNYGMHWIRQAPKKGLEWIAMIYYDSSKMNYADTVKGRFTISRDNSKNTLYLEMNSLRSEDTAMYYCAVPTSHYVVDVWGQGVSVTVSSASTKGPEVQLLESGGGLVQPGGSLRLSCAASGFTFSNYGMSWVRQAPGKGLEWVASIRSGGGRTYYSDNVKGRFTISRDNSKNTLYLQMNSLRAEDTAVYYCVRYDHYSGSSDYWGQGTLVTVSS VL: DIQMTQSPASLSASLEEIVTITCQASQDIGNWLAWYQQKPGKSPQLLIYGATSLADGVPSRFSGSRSGTQFSLKISRVQVEDIGIYYCLQAYNTPWTFGGGTKLELKRTVAAPDVVMTQSPLSLPVTPGEPASISCKSSQSLLDSDGKTYLNWLLQKPGQSPQRLIYLVSKLDSGVPDRFSGSGSGTDFTLKISRVEAEDVGVYYCWQGTHFPRTFGQGTKVEIKR | 0.11 |  | 
TfR(AB405)-GS-RGMA(AE12-1) (bispecific antibody, DVD-Ig composed from its name; constant regions not assigned) VH: QVQLVQSGAEVKKPGASVKVSCKASGFTFSNYGMHWIRQAPGQGLEWIAMIYYDSSKMNYADTVKGRFTITRDNSTNTLYMELSSLRSEDTAVYYCAVPTSHYVVDVWGQGTTVTVSSGGGGSGGGGSEVQLVQSGAEVKKPGASVKVSCKASGYTFTSHGISWVRQAPGQGLDWMGWISPYSGNTNYAQKLQGRVTMTTDTSTSTAYMELSSLRSEDTAVYYCARVGSGPYYYMDVWGQGTLVTVSS VL: EIVMTQSPATLSVSPGERATLSCQASQDIGNWLAWYQQKPGQSPRLLIYGATSLADGVPARFSGSRSGTEFTLTISSLQSEDFAVYYCLQAYNTPWTFGGGTKVEIKRGGSGGGGSGQSALTQPRSVSGSPGQSVTISCTGTSSSVGDSIYVSWYQQHPGKAPKLMLYDVTKRPSGVPDRFSGSKSGNTASLTISGLQAEDEADYYCCSYAGTDTLFGGGTKVTVLG |  | 28.1 | 3.12
Aβ(3D6)-GS-AB403 (bispecific antibody, DVD-Ig composed from its name; Aβ(3D6) = AB043 read from DVD2359; constant regions not assigned; also called Aβ(3D6)-GS-AB403 DVD-Ig) VH: EVQLLESGGGLVQPGGSLRLSCAASGFTFSNYGMSWVRQAPGKGLEWVASIRSGGGRTYYSDNVKGRFTISRDNSKNTLYLQMNSLRAEDTAVYYCVRYDHYSGSSDYWGQGTLVTVSSGGGGSGGGGSEVQLVESGGGLVQPGGSLRLSCAASGFTFSNYGMHWIRQAPGKGLEWIAMIYYDSSKMNYADTVKGRFTISRDNAKNSLYLQMNSLRAEDTAVYYCAVPTSHYVVDVWGQGTTVTVSS VL: DVVMTQSPLSLPVTPGEPASISCKSSQSLLDSDGKTYLNWLLQKPGQSPQRLIYLVSKLDSGVPDRFSGSGSGTDFTLKISRVEAEDVGVYYCWQGTHFPRTFGQGTKVEIKRGGSGGGGSGEIVMTQSPATLSVSPGERATLSCQASQDIGNWLAWYQQKPGQSPRLLIYGATSLADGVPARFSGSRSGTEFTLTISSLQSEDFAVYYCLQAYNTPWTFGGGTKVEIKR |  | 1.98 | 
